Experimental findings from doi:10.1101/2024.09.03.610921 are described below.

For this assay, the target named is RAGE^23-341-His-FLAG (extracellular part of RAGE) (human (cDNA from HEK293T cells)) (UniProt Q15109). Briefly: pull-down.
RAGE^23-341-His-FLAG (extracellular part of RAGE) (human (cDNA from HEK293T cells)), sequence (Q15109 23-341): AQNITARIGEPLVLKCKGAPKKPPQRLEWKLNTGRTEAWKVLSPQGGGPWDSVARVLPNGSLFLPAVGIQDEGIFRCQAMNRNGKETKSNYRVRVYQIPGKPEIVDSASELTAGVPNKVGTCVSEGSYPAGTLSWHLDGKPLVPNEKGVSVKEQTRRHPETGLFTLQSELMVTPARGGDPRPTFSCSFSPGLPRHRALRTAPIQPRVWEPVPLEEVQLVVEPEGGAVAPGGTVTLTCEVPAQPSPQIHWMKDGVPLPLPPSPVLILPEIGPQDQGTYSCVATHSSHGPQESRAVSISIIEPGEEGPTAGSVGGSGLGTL

In the case of “core histone complex purified from bovines”, the fold of histone complex precipitated, against RAGE^124-341 amounted to 2.4 fold.
